Measured values from the nanobody polyreactivity screen of Harvey et al. (2022).

Assay: yeast display, Sf9 membrane polyspecificity reagent, FACS + sequencing; frameworks hold sequencing errors
How it was run: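 A nanobody's polyreactivity label depends on the gate it was sorted from. Yeast display cells were stained with 10% biotinylated, detergent-solubilized Sf9 membrane reagent for 1 hour at 4 °C, enriched on streptavidin microbeads and sorted by FACS. The low and high (top ~1%) gates were set on anti-HA fluorescence for expression and streptavidin fluorescence for reagent binding.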

Sequence | polyreactivity (PSR sort gate)
QVQLVESGGGLVQAGGSLRLSCAASGRIFTYYAKGWYRQPPGKERELVAVISSVGGTYYADSVKGRFTISRDNAKNTVYLQMNSLKPEDTAVYYCAALSDSRWHRFGYWGQGTQVTVSS | high polyreactivity
QVQLVESGGGLVQAGGSLRLSCAASGRIFTYYAMGWYRQAPGKERELVAAISTRGGNTYYADSVKGRFTISRDNAKNSVYLQMNSLKPEDTAVYYCSKENYYGGGFDYWGQGTQVTVSS | high polyreactivity
QVQLVESGGGLVQAGGSLRLSCAASGRIFTYYAMGWYRQAPGKERELVATICSSGSTNYADSVKGRFTISRDNAKNTVYLQMNSLKPEDTAVYYCAKKTRRRYDVKYDYWGQGTQVTVSS | low polyreactivity
QVQLVESGGGLVQAGGSLRLSCAASGRIFTYYAMGWYRQAPGKERQLVAAISSGTGTNYADSVKGRFTNSRDNAKNTVYLQMNSLKPEDTAVYDCAADRQHVVVGYYYWGQGTQVTVSS | low polyreactivity
QVQLVESGGGLVQAGGSLRLSCAASGRIFTYYTMGWYRQAPGKERELVAANDSGSSTYYADSVKGRFTISRDNAKNTVYLQMNSLKPEDTAVYYCAADGVRSLVRRGYWFDYWGQGTQVTVSS | low polyreactivity
QVQLVESGGGLVQAGGSLRLSCAASGRIFVANAMGWYRQAPGKERELVAAISRRGGRTYYADSVKGRFTISRDNAKNTVYLQMNSLKPEDTAVYYCARVPTRAEDVAGWTGMDYWGQGTQVTVSS | high polyreactivity
QVQLVESGGGLVQAGGSLRLSCAASGRIFVDNAMGWYRQAPGKERELVATITSTGSTNYADSVKGRFTISRDNAKNTVYLQMNSLKPEDTAVYYCADGYYPYWGQGTQVTVSS | low polyreactivity
QVQLVESGGGLVQAGGSLRLSCAASGRIFVDNTMGWYRPAPGKERELVAAISRRGTSTYYADSVKGRSTISRDNAKNTVYLQMNSLKPEDTAVYYCAADYYYYDSQQGMDYWGQGTQVTVSS | high polyreactivity
QVQLVESGGGLVQAGGSLRLSCAASGRIFVGYAMGRNIQAPGKERELVAAISRDGDNTFYADSVKGRFTISRDNAKNTVYLQMNSLKPEDTAVYYCAVDYWVWSCSAYAYDYYWGQVTQVTVSS | low polyreactivity
QVQLVESGGGLVQAGGSLRLSCAASGRIFVGYAMGWSRQAPGKERELVASITRSAGRTFYADSVKGRFTISRDNAKNTVYLQMNSLKPEDTAVYYCNARYWKGYNGYLRSTRRDDYWGQGTQVTVSS | high polyreactivity
QVQLVESGGGLVQAGGSLRLSCAASGRIFVHNAMGWYRQAPGKERELVAAISQNGGRTYYADSVKGRFTISRDNAKNTVYLQMNSLIPEDTAVYYCAAGQARAGLIGGYWGQGTQVTVSS | high polyreactivity
QVQLVESGGGLVQAGGSLRLSCAASGRIFVHNAMGWYRQAPGKERELVAAISSGGSTYYADSVKGRFTISRDNAKNTVYLQMNSLKPEDTAVYYCAKYAYYKKYDYWGQGTQVTVSS | high polyreactivity
QVQLVESGGGLVQAGGSLRLSCAASGRIFVHYAMGWYRQAPGKERELVAAISWNGGRTFYADSVKGRFTISRDNEKYTVYLQMNSLKPEDTAVYYCAALSRYSLDYWGQGTQVTVSS | high polyreactivity
QVQLVESGGGLVQAGGSLRLSCAASGRIFVIYAMGWYRQAPGKERELVASIRSSSTYYADSVKGRFTISRDNAKNTVYLQMNSLKPEDTAVYYCAAVAEYRGYDYWGQGTQVTVSS | low polyreactivity
QVQLVESGGGLVQAGGSLRLSCAASGRIFVIYAMGWYRQAPGTERELVAAITARGSNTYYADSVKGRFTISRDNAKNTVYLQMNSLKPEDTAVYYCNAEARSYRYPYNYWGQGTQVTVSS | high polyreactivity
QVQLVESGGGLVQAGGSLRLSCAASGRIFVIYGMGWYRQAPGKERELVAAIRWTGGSTYYADSVKGRFTISRDNAQNTVYLQMNSLQPEDTAVYYCNAGSDRAIWPTHDYWGQGTQVTVSS | low polyreactivity
QVQLVESGGGLVQAGGSLRLSCAASGRIFVIYGRGWYRPAPGKERELVATISWSGSSTSYADSVKGRFTISRDNAKNTVYLQMNSLKPEDTAVYYCAAYTWYSRHRMNYWGQGTQVTVSS | high polyreactivity
